Assay results from the Human Domainome abundance scans (Beltran et al. 2025).
± gives the uncertainty stated by the source.

Experiment: abundance fitness (aPCA) (normalised: wild type 0, dead -1); higher = more abundant; growth selection in yeast, the domain comes from the species named
Settings: Homo sapiens

Substance | abundance fitness
SAFB-like transcription modulator N65W, Q9NWH9 | -0.339 ± 0.071
SAFB-like transcription modulator N65Y, Q9NWH9 | -0.191 ± 0.065
SAFB-like transcription modulator P63A, Q9NWH9 | -0.23 ± 0.053
SAFB-like transcription modulator P63C, Q9NWH9 | -0.134 ± 0.04
SAFB-like transcription modulator P63D, Q9NWH9 | -0.553 ± 0.064
SAFB-like transcription modulator P63E, Q9NWH9 | -0.337 ± 0.058
SAFB-like transcription modulator P63F, Q9NWH9 | -0.257 ± 0.045
SAFB-like transcription modulator P63H, Q9NWH9 | -0.397 ± 0.049
SAFB-like transcription modulator P63I, Q9NWH9 | -0.165 ± 0.057
SAFB-like transcription modulator P63K, Q9NWH9 | -0.354 ± 0.074
SAFB-like transcription modulator P63L, Q9NWH9 | -0.213 ± 0.038
SAFB-like transcription modulator P63M, Q9NWH9 | -0.264 ± 0.068
SAFB-like transcription modulator P63N, Q9NWH9 | -0.422 ± 0.045
SAFB-like transcription modulator P63Q, Q9NWH9 | -0.48 ± 0.082
SAFB-like transcription modulator P63R, Q9NWH9 | -0.478 ± 0.053
SAFB-like transcription modulator P63S, Q9NWH9 | -0.17 ± 0.049
SAFB-like transcription modulator P63T, Q9NWH9 | -0.053 ± 0.065
SAFB-like transcription modulator P63V, Q9NWH9 | -0.09 ± 0.034
SAFB-like transcription modulator P63W, Q9NWH9 | -0.245 ± 0.059
SAFB-like transcription modulator P63Y, Q9NWH9 | -0.214 ± 0.051
SAFB-like transcription modulator Q54A, Q9NWH9 | -0.167 ± 0.083
SAFB-like transcription modulator Q54C, Q9NWH9 | -0.209 ± 0.087
SAFB-like transcription modulator Q54F, Q9NWH9 | -0.068 ± 0.1
SAFB-like transcription modulator Q54G, Q9NWH9 | -0.258 ± 0.069
SAFB-like transcription modulator Q54K, Q9NWH9 | 0.057 ± 0.1
SAFB-like transcription modulator Q54L, Q9NWH9 | 0 ± 0.072

Substance | abundance fitness
SAFB-like transcription modulator Q54M, Q9NWH9 | -0.009 ± 0.1
SAFB-like transcription modulator Q54N, Q9NWH9 | -0.037 ± 0.24
SAFB-like transcription modulator Q54P, Q9NWH9 | -0.666 ± 0.3
SAFB-like transcription modulator Q54R, Q9NWH9 | -0.106 ± 0.045
SAFB-like transcription modulator Q54S, Q9NWH9 | -0.526 ± 0.1
SAFB-like transcription modulator Q54T, Q9NWH9 | 0.146 ± 0.09
SAFB-like transcription modulator Q54V, Q9NWH9 | -0.209 ± 0.078
SAFB-like transcription modulator Q54W, Q9NWH9 | -0.043 ± 0.08
SAFB-like transcription modulator Q54Y, Q9NWH9 | -0.497 ± 0.27
SAFB-like transcription modulator R26A, Q9NWH9 | -0.12 ± 0.1
SAFB-like transcription modulator R26C, Q9NWH9 | -0.57 ± 0.14
SAFB-like transcription modulator R26D, Q9NWH9 | 0.033 ± 0.15
SAFB-like transcription modulator R26E, Q9NWH9 | -0.191 ± 0.11
SAFB-like transcription modulator R26F, Q9NWH9 | -0.268 ± 0.065
SAFB-like transcription modulator R26G, Q9NWH9 | -0.19 ± 0.08
SAFB-like transcription modulator R26H, Q9NWH9 | -0.322 ± 0.23
SAFB-like transcription modulator R26K, Q9NWH9 | -0.389 ± 0.14
SAFB-like transcription modulator R26L, Q9NWH9 | -0.131 ± 0.078
SAFB-like transcription modulator R26M, Q9NWH9 | -0.098 ± 0.092
SAFB-like transcription modulator R26P, Q9NWH9 | -0.126 ± 0.14
SAFB-like transcription modulator R26Q, Q9NWH9 | -0.502 ± 0.17
SAFB-like transcription modulator R26S, Q9NWH9 | -0.011 ± 0.071
SAFB-like transcription modulator R26T, Q9NWH9 | -0.302 ± 0.12
SAFB-like transcription modulator R26V, Q9NWH9 | -0.365 ± 0.085
SAFB-like transcription modulator R26W, Q9NWH9 | -0.627 ± 0.1
SAFB-like transcription modulator R26Y, Q9NWH9 | -0.579 ± 0.27

Substance | abundance fitness
SAFB-like transcription modulator R36S, Q9NWH9 | -0.048 ± 0.42
SAFB-like transcription modulator R37A, Q9NWH9 | -1.09 ± 0.091
SAFB-like transcription modulator R37C, Q9NWH9 | -0.921 ± 0.052
SAFB-like transcription modulator R37D, Q9NWH9 | -0.621 ± 0.052
SAFB-like transcription modulator R37E, Q9NWH9 | -0.694 ± 0.036
SAFB-like transcription modulator R37G, Q9NWH9 | -0.912 ± 0.047
SAFB-like transcription modulator R37H, Q9NWH9 | -0.648 ± 0.066
SAFB-like transcription modulator R37I, Q9NWH9 | -1.07 ± 0.16
SAFB-like transcription modulator R37K, Q9NWH9 | -0.283 ± 0.098
SAFB-like transcription modulator R37L, Q9NWH9 | -0.71 ± 0.045
SAFB-like transcription modulator R37M, Q9NWH9 | -0.601 ± 0.064
SAFB-like transcription modulator R37N, Q9NWH9 | -1.12 ± 0.17
SAFB-like transcription modulator R37P, Q9NWH9 | -0.658 ± 0.094
SAFB-like transcription modulator R37Q, Q9NWH9 | -0.575 ± 0.13
SAFB-like transcription modulator R37S, Q9NWH9 | -0.845 ± 0.057
SAFB-like transcription modulator R37T, Q9NWH9 | -0.751 ± 0.078
SAFB-like transcription modulator R37V, Q9NWH9 | -1.06 ± 0.08
SAFB-like transcription modulator R37W, Q9NWH9 | -1.26 ± 0.071
SAFB-like transcription modulator R37Y, Q9NWH9 | -0.722 ± 0.16
SAFB-like transcription modulator R51A, Q9NWH9 | -0.437 ± 0.077
SAFB-like transcription modulator R51D, Q9NWH9 | -0.783 ± 0.4
SAFB-like transcription modulator R51F, Q9NWH9 | -1.21 ± 0.38
SAFB-like transcription modulator R51G, Q9NWH9 | -0.574 ± 0.078
SAFB-like transcription modulator R51H, Q9NWH9 | -0.814 ± 0.27
SAFB-like transcription modulator R51I, Q9NWH9 | -0.542 ± 0.22
SAFB-like transcription modulator R51K, Q9NWH9 | -0.2 ± 0.065

Substance | abundance fitness
SAFB-like transcription modulator R51L, Q9NWH9 | -0.753 ± 0.068
SAFB-like transcription modulator R51M, Q9NWH9 | -0.506 ± 0.051
SAFB-like transcription modulator R51N, Q9NWH9 | -0.403 ± 0.037
SAFB-like transcription modulator R51P, Q9NWH9 | -0.699 ± 0.13
SAFB-like transcription modulator R51S, Q9NWH9 | -0.511 ± 0.063
SAFB-like transcription modulator R51T, Q9NWH9 | -0.57 ± 0.13
SAFB-like transcription modulator R51V, Q9NWH9 | -0.73 ± 0.19
SAFB-like transcription modulator R51W, Q9NWH9 | -1.1 ± 0.085
SAFB-like transcription modulator R51Y, Q9NWH9 | -1.01 ± 0.35
SAFB-like transcription modulator S32A, Q9NWH9 | -0.147 ± 0.062
SAFB-like transcription modulator S32C, Q9NWH9 | -0.309 ± 0.067
SAFB-like transcription modulator S32D, Q9NWH9 | 0.156 ± 0.073
SAFB-like transcription modulator S32E, Q9NWH9 | -0.03 ± 0.05
SAFB-like transcription modulator S32F, Q9NWH9 | -0.125 ± 0.036
SAFB-like transcription modulator S32G, Q9NWH9 | -0.077 ± 0.051
SAFB-like transcription modulator S32H, Q9NWH9 | -0.031 ± 0.055
SAFB-like transcription modulator S32K, Q9NWH9 | -0.246 ± 0.085
SAFB-like transcription modulator S32L, Q9NWH9 | -0.024 ± 0.04
SAFB-like transcription modulator S32M, Q9NWH9 | -0.051 ± 0.044
SAFB-like transcription modulator S32N, Q9NWH9 | -0.407 ± 0.11
SAFB-like transcription modulator S32P, Q9NWH9 | -0.768 ± 0.058
SAFB-like transcription modulator S32Q, Q9NWH9 | -0.325 ± 0.097
SAFB-like transcription modulator S32R, Q9NWH9 | -0.176 ± 0.045
SAFB-like transcription modulator S32T, Q9NWH9 | -0.048 ± 0.068
SAFB-like transcription modulator S32V, Q9NWH9 | -0.023 ± 0.051
